Residue numbers refer to the chain shown, from its start. Names and notes keep the numbering of the source.
T1: human FcγRIIa type R (human, UniProt P12318 36-217)
T1 construct: also called FcγRIIaR; FcγRIIa(R)
T1 chain: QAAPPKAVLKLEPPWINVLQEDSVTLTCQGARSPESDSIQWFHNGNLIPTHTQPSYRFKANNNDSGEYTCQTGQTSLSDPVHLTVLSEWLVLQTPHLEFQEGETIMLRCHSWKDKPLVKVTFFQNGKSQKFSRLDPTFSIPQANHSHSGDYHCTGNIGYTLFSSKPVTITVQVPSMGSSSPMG

T2: human FcγRIIa type H (human, UniProt P12318 36-217)
T2 construct: Whole entry named for FcγRIIa allotype H131 (AAH20823.1); also called FcγRIIaH; FcγRIIa(H)
T2 sequence: T1 chain with R133H

T3: human FcγRIIb (human, UniProt P31994 43-217)
T3 construct: also called FcγIIB
T3 sequence: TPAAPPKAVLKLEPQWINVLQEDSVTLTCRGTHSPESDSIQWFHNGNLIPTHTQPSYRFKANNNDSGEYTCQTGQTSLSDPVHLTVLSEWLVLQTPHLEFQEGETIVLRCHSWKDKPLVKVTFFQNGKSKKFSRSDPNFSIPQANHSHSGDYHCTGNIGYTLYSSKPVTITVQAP

T4: human FcγRIIa type H (human, UniProt P12318 36-217)
T4 construct: also called FcgRIIaH; FcγRIIa(H)
T4 sequence: T1 chain with R133H

T5: human FcγRIIb (human, UniProt P31994 43-217, limits assumed)
T5 construct: also called FcgRIIb; FcγIIB
T5 sequence: T3 sequence

T6: human FcγRIIb (human, UniProt P31994 43-217)
T6 construct: also called FcγIIB
T6 sequence: T3 sequence

B1: IL6R-B3/IL6R-L (antibody, human IgG1)
heavy: not shown
light: DIQMTQSPSSLSASVGDRVTITCRASQDISSYLNWYQQKPGKAPKLLIYYTSRLHSGVPSRFSGSGSGTDFTFTISSLQPEDIATYYCQQGNTLPYTFGQGTKVEIK
notes: IL6R-G1d with K439E (EU numbering); copies: 2 + 2
B2: IL6R-BP205/IL6R-L (antibody, human IgG1)
heavy: QVQLQESGPGLVKPSETLSLTCAVSGHSISHDHAWSWVRQPPGEGLEWIGFISYSGITNYNPSLQGRVTISRDNSKNTLYLQMNSLRAEDTAVYYCARSLARTTAMDYWGEGTLVTVSSASTKGPSVFPLAPSSKSTSGGTAALGCLVKDYFPEPVTVSWNSGALTSGVHTFPAVLQSSGLYSLSSVVTVPSSSLGTQTYICNVNHKPSNTKVDKKVEPKSCDKTHTCPPCPAPDLLGGDSVFLFPPKPKDTLMISRTPEVTCVVVDVSHEDGEVKFNWYVDGVEVHNAKTKPREEQDNSTYRVVSVLTVLHQDWLNGKEYKCKVSNKALPRPIEKTISKAKGQPREPQVYTLPPSRDELTKNQVSLTCLVKGFYPSDIAVEWESNGQPENNYKTTPPVLDSDGSFFLYSKLTVDKSRWQQGNVFSCSVMHEALHNHYTQESLSLSP
light: B1 light
notes: The common L chain is IL6R-L; copies: 2 + 2
B3: IL6R-BP136/IL6R-L (antibody, human IgG1)
heavy: B2 heavy with D235E, G273P, D298Y, K328A, R332A
light: B1 light
notes: copies: 2 + 2
B4: IL6R-2B002/IL6R-L (antibody, human IgG1)
heavy: B2 heavy with G273P, D298Y, R332A
light: B1 light
notes: copies: 2 + 2
B5: IL6R-BP201/IL6R-L (antibody, human IgG1)
heavy: B2 heavy with G239D, D298Y
light: B1 light
notes: as for B2
B6: IL6R-BP078/IL6R-L (antibody, human IgG1)
heavy: B2 heavy with D235E, G273P, D298Y, R332M
light: B1 light
notes: copies: 2 + 2
B7: IL6R-BP911/IL6R-L (antibody, human IgG1)
heavy: B2 heavy with D235E, G273P, D298Y, R332K
light: B1 light
notes: copies: 2 + 2
B8: IL6R-BP192/IL6R-L (antibody, human IgG1)
heavy: B2 heavy with H270D, R332K
light: B1 light
notes: Anti-human IL-6 receptor human IgG1 variant; copies: 2 + 2
B9: IL6R-2B128/IL6R-L (antibody, human IgG1)
heavy: B2 heavy with D235E, G273P, R332A
light: B1 light
notes: copies: 2 + 2
B10: IL6R-2B171/IL6R-L (antibody, human IgG1)
heavy: B2 heavy with D235E, G273P, D298Y, V325L, R332A
light: B1 light
notes: copies: 2 + 2
B11: IL6R-2B169/IL6R-L (antibody, human IgG1)
heavy: B2 heavy with D235E, G273P, D298Y, V325I, R332A
light: B1 light
notes: copies: 2 + 2
B12: IL6R-BP107/IL6R-L (antibody, human IgG1)
heavy: B2 heavy with D235E, H270E, G273P, D298Y, R332A
light: B1 light
notes: copies: 2 + 2
B13: IL6R-BP126/IL6R-L (antibody, human IgG1)
heavy: B2 heavy with D235E, G273P, D298Y, K328L, R332A
light: B1 light
notes: copies: 2 + 2
B14: IL6R-BP214/IL6R-L (antibody)
heavy: B2 heavy with L236Y, G239D, G273P, K328D, R332K
light: B1 light
notes: copies: 2 + 2
B15: IL6R-BP117/IL6R-L (antibody, human IgG1)
heavy: B2 heavy with D235E, G273P, D298Y, K328D, R332A
light: B1 light
notes: copies: 2 + 2
B16: IL6R-BP210/IL6R-L (antibody, human IgG1)
heavy: B2 heavy with D235E, G239D, H270D, D298Y
light: B1 light
notes: as for B2
B17: IL6R-BP204/IL6R-L (antibody, human IgG1)
heavy: B2 heavy with D298Y, K328A
light: B1 light
notes: as for B2
B18: IL6R-BP120/IL6R-L (antibody, human IgG1)
heavy: B2 heavy with D235E, G273P, D298Y, K328E, R332A
light: B1 light
notes: copies: 2 + 2
B19: IL6R-BP202/IL6R-L (antibody, human IgG1)
heavy: B2 heavy with D235E, G239D, D298Y, K328A
light: B1 light
notes: as for B2
B20: IL6R-BP142/IL6R-L (antibody, human IgG1)
heavy: B2 heavy with D235E, G273P, D298Y, K328N, R332A
light: B1 light
notes: copies: 2 + 2
B21: IL6R-BP112/IL6R-L (antibody, human IgG1)
heavy: B2 heavy with D235E, D298Y, R332A
light: B1 light
notes: copies: 2 + 2
B22: IL6R-BP193/IL6R-L (antibody, human IgG1)
heavy: B2 heavy with H270D, D298Y, R332K
light: B1 light
notes: as for B8

How the values were obtained:
human FcγRIa [1] = target: T7, human FcγRIa (human, UniProt P12314 16-292, limits assumed); assay: SPR (Biacore), FcγR over captured antibody; amount bound relative to IL6R-BF648/IL6R-L x100
T7 construct: also called CD64
T7 sequence (P12314 16-292 limits assumed): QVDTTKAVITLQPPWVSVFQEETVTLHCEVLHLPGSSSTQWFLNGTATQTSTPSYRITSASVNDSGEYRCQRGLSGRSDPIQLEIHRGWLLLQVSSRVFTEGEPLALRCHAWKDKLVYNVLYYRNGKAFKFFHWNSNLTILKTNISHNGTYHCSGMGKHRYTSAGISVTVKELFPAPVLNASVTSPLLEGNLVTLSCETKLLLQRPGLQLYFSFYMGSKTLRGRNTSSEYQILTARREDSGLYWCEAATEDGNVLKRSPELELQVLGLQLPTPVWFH

human FcγRIIa type R = target: T1, human FcγRIIa type R; assay: as above
human FcγRIIa type H [2] = target: T2, human FcγRIIa type H; assay: as above
human FcγRIIb [3] = target: T3, human FcγRIIb; assay: as above
human FcγRIIIa type V = target: T8, human FcγRIIIa type V (human, UniProt P08637 17-208, limits assumed); assay: as above
T8 construct: also called FcγRIIIaV; FcγRIIIa(V)

human FcγRIa [4] = target: T9, human FcγRIa (human, UniProt P12314 16-292, limits assumed); assay: SPR (Biacore); binding amount divided by that of control IL6R-BF648/IL6R-L, x100
T9 construct: also called FcgRIa; CD64
T9 sequence (P12314 16-292 limits assumed): as above
Experimental: (§1) According to the following method, relative binding activities were calculated for the results of analyzing interactions with the respective FcγRs.

human FcγRIIa type H [5] = target: T4, human FcγRIIa type H; assay: as above
Experimental: as §1

human FcγRIIb [6] = target: T5, human FcγRIIb; assay: as above
Experimental: as §1

human FcγRIIb [7] = target: T6, human FcγRIIb; assay: SPR (Biacore); KD of parent IL6R-B3/IL6R-L for FcγRIIb divided by KD of the variant for FcγRIIb
Text: Furthermore, KD(IIaR)/KD(IIb) and KD(IIaH)/KD(IIb) in the table respectively represent the value obtained by dividing the KD value of each variant for FcγRIIaR by the KD value of each variant for FcγRIIb, and the value obtained by dividing the KD value of each variant for FcγRIIaH by the KD value of each variant for FcγRIIb.

T8 sequence (P08637 other isoform, or with tags, fused parts or gaps limits assumed): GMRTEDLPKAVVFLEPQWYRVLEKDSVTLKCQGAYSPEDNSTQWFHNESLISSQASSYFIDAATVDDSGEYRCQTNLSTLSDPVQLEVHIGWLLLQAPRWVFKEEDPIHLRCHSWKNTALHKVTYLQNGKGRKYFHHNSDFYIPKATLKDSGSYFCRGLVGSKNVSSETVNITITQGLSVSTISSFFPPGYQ

Row | Binder | relative binding (human FcγRIa [1]) | relative binding (human FcγRIIa type R) | relative binding (human FcγRIIa type H [2]) | relative binding (human FcγRIIb [3]) | relative binding (human FcγRIIIa type V) | relative binding activity (human FcγRIa [4]) | relative binding activity (human FcγRIIa type H [5]) | relative binding activity (human FcγRIIb [6]) | KD(IIb) of the parent polypeptide/KD(IIb) of the altered polypeptide (human FcγRIIb [7])
1 | B1 | 145 relative value (IL6R-BF648/IL6R-L = 100) | 625 relative value (IL6R-BF648/IL6R-L = 100) | 1600 relative value (IL6R-BF648/IL6R-L = 100) | 58 relative value (IL6R-BF648/IL6R-L = 100) | 3260 relative value (IL6R-BF648/IL6R-L = 100) |  |  |  | 
2 | B2 |  |  |  |  |  | 97 % of IL6R-BF648/IL6R-L | 108 % of IL6R-BF648/IL6R-L | 167 % of IL6R-BF648/IL6R-L | 
3 | B3 | 117 relative value (IL6R-BF648/IL6R-L = 100) | 159 relative value (IL6R-BF648/IL6R-L = 100) | 103 relative value (IL6R-BF648/IL6R-L = 100) | 119 relative value (IL6R-BF648/IL6R-L = 100) |  |  |  |  | 
4 | B4 | 118 relative value (IL6R-BF648/IL6R-L = 100) | 103 relative value (IL6R-BF648/IL6R-L = 100) | 147 relative value (IL6R-BF648/IL6R-L = 100) |  | 147 relative value (IL6R-BF648/IL6R-L = 100) |  |  |  | 
5 | B5 |  |  |  |  |  | 57 % of IL6R-BF648/IL6R-L | 359 % of IL6R-BF648/IL6R-L | 186 % of IL6R-BF648/IL6R-L | 
6 | B6 |  | 101 relative value (IL6R-BF648/IL6R-L = 100) | 89 relative value (IL6R-BF648/IL6R-L = 100) |  | 91 relative value (IL6R-BF648/IL6R-L = 100) |  |  |  | 
7 | B7 | 52 relative value (IL6R-BF648/IL6R-L = 100) | 101 relative value (IL6R-BF648/IL6R-L = 100) | 108 relative value (IL6R-BF648/IL6R-L = 100) | 119 relative value (IL6R-BF648/IL6R-L = 100) |  |  |  |  | 
8 | B8 |  |  |  |  |  |  |  |  | 27.3
9 | B9 | 95 relative value (IL6R-BF648/IL6R-L = 100) | 87 relative value (IL6R-BF648/IL6R-L = 100) | 37 relative value (IL6R-BF648/IL6R-L = 100) | 103 relative value (IL6R-BF648/IL6R-L = 100) | 96 relative value (IL6R-BF648/IL6R-L = 100) |  |  |  | 
10 | B10 | 116 relative value (IL6R-BF648/IL6R-L = 100) | 117 relative value (IL6R-BF648/IL6R-L = 100) | 115 relative value (IL6R-BF648/IL6R-L = 100) | 113 relative value (IL6R-BF648/IL6R-L = 100) | 122 relative value (IL6R-BF648/IL6R-L = 100) |  |  |  | 
11 | B11 | 73 relative value (IL6R-BF648/IL6R-L = 100) |  | 83 relative value (IL6R-BF648/IL6R-L = 100) | 104 relative value (IL6R-BF648/IL6R-L = 100) | 94 relative value (IL6R-BF648/IL6R-L = 100) |  |  |  | 
12 | B12 | 123 relative value (IL6R-BF648/IL6R-L = 100) | 147 relative value (IL6R-BF648/IL6R-L = 100) |  | 118 relative value (IL6R-BF648/IL6R-L = 100) | 129 relative value (IL6R-BF648/IL6R-L = 100) |  |  |  | 
13 | B13 | 113 relative value (IL6R-BF648/IL6R-L = 100) | 167 relative value (IL6R-BF648/IL6R-L = 100) | 132 relative value (IL6R-BF648/IL6R-L = 100) | 103 relative value (IL6R-BF648/IL6R-L = 100) |  |  |  |  | 
14 | B14 |  |  |  |  |  | 36 % of IL6R-BF648/IL6R-L | 285 % of IL6R-BF648/IL6R-L | 174 % of IL6R-BF648/IL6R-L | 
15 | B15 | 124 relative value (IL6R-BF648/IL6R-L = 100) | 166 relative value (IL6R-BF648/IL6R-L = 100) | 96 relative value (IL6R-BF648/IL6R-L = 100) | 118 relative value (IL6R-BF648/IL6R-L = 100) |  |  |  |  | 
16 | B16 |  |  |  |  |  | 57 % of IL6R-BF648/IL6R-L | 279 % of IL6R-BF648/IL6R-L | 187 % of IL6R-BF648/IL6R-L | 
17 | B17 |  |  |  |  |  | 110 % of IL6R-BF648/IL6R-L | 137 % of IL6R-BF648/IL6R-L | 165 % of IL6R-BF648/IL6R-L | 
18 | B18 | 125 relative value (IL6R-BF648/IL6R-L = 100) | 175 relative value (IL6R-BF648/IL6R-L = 100) |  | 114 relative value (IL6R-BF648/IL6R-L = 100) |  |  |  |  | 
19 | B19 |  |  |  |  |  | 43 % of IL6R-BF648/IL6R-L | 285 % of IL6R-BF648/IL6R-L | 185 % of IL6R-BF648/IL6R-L | 
20 | B20 | 98 relative value (IL6R-BF648/IL6R-L = 100) | 103 relative value (IL6R-BF648/IL6R-L = 100) | 97 relative value (IL6R-BF648/IL6R-L = 100) | 106 relative value (IL6R-BF648/IL6R-L = 100) |  |  |  |  | 
21 | B21 | 119 relative value (IL6R-BF648/IL6R-L = 100) | 340 relative value (IL6R-BF648/IL6R-L = 100) | 113 relative value (IL6R-BF648/IL6R-L = 100) | 157 relative value (IL6R-BF648/IL6R-L = 100) |  |  |  |  | 
22 | B22 |  |  |  |  |  |  |  |  | 25.5

Reference: patent US20140105889A1 (published 2014)
